These are literature values, as cited in publication PMC3236687.

As usually defined, the Kd is the constant that tells how readily two partners part at equilibrium.

In data set [1] the target is endothelin receptor (renal papillary membranes) (Sus scrofa) (UniProt P35463). Nature of the data set: radioligand.
Data set [2] deals with endothelin receptors (IMCD cells) (Rattus norvegicus) (UniProt P26684). Nature of the data set: radioligand.
Sequence of UniProt P26684 (P26684 21-426, chain 1 of 2): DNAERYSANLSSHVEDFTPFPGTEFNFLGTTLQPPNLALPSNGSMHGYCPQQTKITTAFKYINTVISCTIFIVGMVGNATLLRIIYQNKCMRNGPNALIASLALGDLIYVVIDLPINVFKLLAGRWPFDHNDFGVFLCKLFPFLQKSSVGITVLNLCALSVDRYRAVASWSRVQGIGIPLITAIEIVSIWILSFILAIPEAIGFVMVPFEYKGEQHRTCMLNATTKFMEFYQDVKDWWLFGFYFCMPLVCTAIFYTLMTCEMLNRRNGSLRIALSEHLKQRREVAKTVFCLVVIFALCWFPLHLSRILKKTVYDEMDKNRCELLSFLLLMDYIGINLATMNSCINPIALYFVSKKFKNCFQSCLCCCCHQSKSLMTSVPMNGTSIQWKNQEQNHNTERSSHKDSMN
Sequence of UniProt P26684 (P21451 27-442, chain 2 of 2, further chain): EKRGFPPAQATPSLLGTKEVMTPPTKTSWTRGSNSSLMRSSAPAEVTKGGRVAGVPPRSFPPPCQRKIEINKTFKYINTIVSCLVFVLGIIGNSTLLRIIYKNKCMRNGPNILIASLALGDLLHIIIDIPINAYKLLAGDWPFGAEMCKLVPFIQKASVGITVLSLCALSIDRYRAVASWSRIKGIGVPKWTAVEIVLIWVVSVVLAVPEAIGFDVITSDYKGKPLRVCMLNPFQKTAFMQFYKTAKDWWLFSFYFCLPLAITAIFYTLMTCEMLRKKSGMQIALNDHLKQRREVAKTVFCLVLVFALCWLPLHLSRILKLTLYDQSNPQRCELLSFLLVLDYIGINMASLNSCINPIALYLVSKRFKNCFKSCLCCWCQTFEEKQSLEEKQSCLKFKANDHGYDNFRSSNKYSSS

Sequence of UniProt P35463 (P35463 27-443): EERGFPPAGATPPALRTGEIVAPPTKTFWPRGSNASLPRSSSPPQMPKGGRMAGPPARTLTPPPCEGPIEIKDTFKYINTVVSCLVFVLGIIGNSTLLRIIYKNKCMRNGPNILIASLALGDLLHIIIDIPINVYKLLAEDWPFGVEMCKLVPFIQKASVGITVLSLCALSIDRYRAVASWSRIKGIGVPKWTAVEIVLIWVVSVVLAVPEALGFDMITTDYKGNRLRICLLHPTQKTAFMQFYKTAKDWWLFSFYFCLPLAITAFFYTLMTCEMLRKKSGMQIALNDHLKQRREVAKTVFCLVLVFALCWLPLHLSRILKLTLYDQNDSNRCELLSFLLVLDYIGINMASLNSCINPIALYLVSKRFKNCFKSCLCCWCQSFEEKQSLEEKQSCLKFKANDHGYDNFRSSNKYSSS

Consider ET-1 (from UniProt P05305), for which the Kd is 0.137 nM in data set [1] and 0.218 nM in data set [2].
